Experimental data taken from US20110008492.

Molecular target: kappa-casein of bovine (cow's) milk, P02668
Sequence (P02668 22-190): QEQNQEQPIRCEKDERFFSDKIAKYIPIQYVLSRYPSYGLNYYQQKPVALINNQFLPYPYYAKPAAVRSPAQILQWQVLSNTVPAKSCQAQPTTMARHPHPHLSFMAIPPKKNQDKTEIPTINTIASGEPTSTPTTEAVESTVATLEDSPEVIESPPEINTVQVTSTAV

| Protein | Specific activity (IMCU/mg) | Time to clotting [min] |
| --- | --- | --- |
| camel chymosin (Camelus dromedarius chymosin, recombinantly produced) (protein) GKVAREPLTSYLDSQYFGKIYIGTPPQEFTVVFDTGSSDLWVPSIYCKSNVCKNHHRFDPRKSSTFRNLGKPLSIHYGTGSMEGFLGYDTVTVSNIVDPNQTVGLSTEQPGEVFTYSEFDGILGLAYPSLASEYSVPVFDNMMDRHLVARDLFSVYMDRNGQGSMLTLGAIDPSYYTGSLHWVPVTLQQYWQFTVDSVTINGVAVACVGGCQAILDTGTSVLFGPSSDILKIQMAIGATENRYGEFDVNCGNLRSMPTVVFEINGRDYPLSPSAYTSKDQGFCTSGFQGDNNSELWILGDVFIREYYSVFDRANNRVGLAKAI | 462 | 12 to 13 |
| bovine (calf) chymosin B, recombinant (protein) GEVASVPLTNYLDSQYFGKIYLGTPPQEFTVLFDTGSSDFWVPSIYCKSNACKNHQRFDPRKSSTFQNLGKPLSIHYGTGSMQGILGYDTVTVSNIVDIQQTVGLSTQEPGDVFTYAEFDGILGMAYPSLASEYSIPVFDNMMNRHLVAQDLFSVYMDRNGQESMLTLGAIDPSYYTGSLHWVPVTVQQYWQFTVDSVTISGVVVACEGGCQAILDTGTSKLVGPSSDILNIQQAIGATQNQYGEFDIDCDNLSYMPTVVFEINGKMYPLTPSAYTSQDQGFCTSGFQSENHSQKWILGDVFIREYYSVFDRANNLVGLAKAI | 223 | 12 to 13 |
